Assay [1] has as its target T1, N(A2B2)A-avi-His (human, biotinylated avi-tag).
T1 construct: also called biotinylated N(A2B2)A-avi-His
T1 chain: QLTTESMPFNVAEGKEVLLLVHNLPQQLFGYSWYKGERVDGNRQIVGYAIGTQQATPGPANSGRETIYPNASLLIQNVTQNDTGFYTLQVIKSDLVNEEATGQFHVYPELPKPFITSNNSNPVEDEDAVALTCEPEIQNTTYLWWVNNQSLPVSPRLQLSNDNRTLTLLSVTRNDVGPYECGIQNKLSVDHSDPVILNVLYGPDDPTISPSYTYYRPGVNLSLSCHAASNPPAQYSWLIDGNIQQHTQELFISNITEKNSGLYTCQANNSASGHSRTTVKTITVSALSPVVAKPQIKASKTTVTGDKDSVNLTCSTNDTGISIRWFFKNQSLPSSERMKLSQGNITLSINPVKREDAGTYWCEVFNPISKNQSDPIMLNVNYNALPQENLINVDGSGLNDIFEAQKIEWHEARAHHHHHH
In words: SPR ProteOn, purified Fab.

The target of assay [2] is T2, recombinant CD79b-His (Sinobiological #29750-H08H) (Homo sapiens (Human), UniProt P40259 29-159).
T2 construct: bought protein; also called soluble recombinant CD79b-His
T2 sequence: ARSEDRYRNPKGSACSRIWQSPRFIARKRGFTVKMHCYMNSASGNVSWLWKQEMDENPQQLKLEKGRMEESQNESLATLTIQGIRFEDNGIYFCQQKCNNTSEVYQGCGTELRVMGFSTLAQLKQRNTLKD
In words: SPR Biacore T200, CD79b-His captured by anti-penta-His. Background: In SPR one partner is held on a chip, and binding of the other changes the refractive index at the surface.

Assay [3] addresses T1, N(A2B2)A-avi-His. In words: SPR ProteOn, purified bispecific IgG.
Assay [4] addresses T3, human CEA (CEACAM5) expressed on cells (MKN45; MV3 engineered to express human CEACAM5) (human, UniProt P06731 35-685).
T3 sequence: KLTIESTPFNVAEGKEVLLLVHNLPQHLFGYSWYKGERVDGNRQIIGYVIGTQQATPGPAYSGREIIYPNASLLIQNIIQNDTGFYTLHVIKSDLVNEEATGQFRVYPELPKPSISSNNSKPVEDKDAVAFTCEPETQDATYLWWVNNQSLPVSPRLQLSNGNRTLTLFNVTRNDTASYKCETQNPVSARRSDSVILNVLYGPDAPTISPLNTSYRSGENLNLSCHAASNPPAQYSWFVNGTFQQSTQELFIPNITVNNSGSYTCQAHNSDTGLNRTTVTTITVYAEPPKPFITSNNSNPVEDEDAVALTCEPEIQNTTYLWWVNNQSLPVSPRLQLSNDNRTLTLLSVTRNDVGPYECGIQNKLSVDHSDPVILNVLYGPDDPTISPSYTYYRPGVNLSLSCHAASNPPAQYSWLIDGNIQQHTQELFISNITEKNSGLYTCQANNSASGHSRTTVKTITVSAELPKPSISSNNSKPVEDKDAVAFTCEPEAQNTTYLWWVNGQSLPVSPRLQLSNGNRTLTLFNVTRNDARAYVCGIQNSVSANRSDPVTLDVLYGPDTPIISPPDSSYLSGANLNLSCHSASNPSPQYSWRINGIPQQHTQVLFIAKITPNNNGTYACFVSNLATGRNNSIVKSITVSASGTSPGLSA
In words: flow cytometry on MV3 cells expressing CEA.

For assay [5], the target named is T4, Hu N(A2-B2)A-avi-His, chimeric CEACAM1 protein with CEACAM5 domains A2 and B2 (human, biotinylated avi-tag (Example 2.2)).
T4 construct: also called hu N(A2-B2)A-avi-His B; human CEA (A2 domain)
T4 chain: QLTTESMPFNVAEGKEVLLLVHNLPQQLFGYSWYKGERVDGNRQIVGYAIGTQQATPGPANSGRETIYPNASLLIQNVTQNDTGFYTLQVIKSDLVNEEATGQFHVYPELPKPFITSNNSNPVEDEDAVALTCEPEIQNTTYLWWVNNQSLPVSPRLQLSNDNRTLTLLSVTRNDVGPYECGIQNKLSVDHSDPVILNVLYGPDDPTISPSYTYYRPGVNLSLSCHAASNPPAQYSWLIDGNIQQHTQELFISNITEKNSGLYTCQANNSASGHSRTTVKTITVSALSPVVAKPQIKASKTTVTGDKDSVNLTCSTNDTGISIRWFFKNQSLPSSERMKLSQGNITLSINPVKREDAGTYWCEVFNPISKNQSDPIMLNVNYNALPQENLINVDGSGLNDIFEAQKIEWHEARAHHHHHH
In words: SPR ProteOn, biotinylated antigen on NLC chip.

For assay [6], the target named is T5, human HER3 on T-47D cells (human, UniProt P21860 20-1342).
T5 construct: also called ErbB3
The experiment in a line: flow cytometry.

B1: P001.177 Fab fragment (Fab, V domains shown)
VH: EVQLLESGGGLVQPGGSLRLSCAASGFYFTDYYMNWVRQAPGKGLEWLGFISNKANAYTTEYSASVKGRFTISRDKSKNTLYLQMNSLRAEDTATYYCTRDRGLRFYFDYWGQGTTVTVSS
VL: EIVLTQSPATLSLSPGERATLSCRASSSVTYIHWYQQKPGQAPRSWIYATSNLASGIPARFSGSGSGTDFTLTISSLEPEDFAVYYCQHWSSKPPTFGQGTKLEIK
As a reminder, the koff is the rate constant with which the complex falls apart. For the molecule B1, the koff in the assay with N(A2B2)A-avi-His [1] was 0.000785 s⁻¹.

B2: P005.102 Fab fragment (Fab, V domains shown)
VH: EVQLLESGGGLVQPGGSLRLSCAASGFTFTDYYMNWVRQAPGKGLEWLGFIGNKANAYTTEYSASVKGRFTISRDKSKNTLYLQMNSLRAEDTATYYCTRDRGIRFQFDYWGQGTTVTVSS
VL: EIVLTQSPATLSLSPGERATLSCRASSSVTYIHWYQQKPGQAPRSWIYATSNLASGIPARFSGSGSGTDFTLTISSLEPEDFAVYYCQHWSSKSPTFGQGTKLEIK
Molecule B2 came in with a koff with N(A2B2)A-avi-His [1] of 0.000392 s⁻¹.

B3: Molecule 18F: CD79b (huMA79b.v28)-CD28 (SA v15) 1+1 (bispecific antibody, human IgG1, kappa, L234A L235A)
heavy 1: not shown
heavy 2: DIQLTQSPSSLSASVGDRVTITCKASQSVDYEGDSFLNWYQQKPGKAPKLLIYAASNLESGVPSRFSGSGSGTDFTLTISSLQPEDFATYYCQQSNEDPLTFGQGTKVEIKSSASTKGPSVFPLAPSSKSTSGGTAALGCLVKDYFPEPVTVSWNSGALTSGVHTFPAVLQSSGLYSLSSVVTVPSSSLGTQTYICNVNHKPSNTKVDKKVEPKSCDKTHTCPPCPAPEAAGGPSVFLFPPKPKDTLMISRTPEVTCVVVDVSHEDPEVKFNWYVDGVEVHNAKTKPREEQYNSTYRVVSVLTVLHQDWLNGKEYKCKVSNKALGAPIEKTISKAKGQPREPQVCTLPPSRDELTKNQVSLSCAVKGFYPSDIAVEWESNGQPENNYKTTPPVLDSDGSFFLVSKLTVDKSRWQQGNVFSCSVMHEALHNHYTQKSLSLSP
light 1: not shown
light 2: EVQLVESGGGLVQPGGSLRLSCAASGYTFSSYWIEWVRQAPGKGLEWIGEILPGGGDTNYNEIFKGRATFSADTSKNTAYLQMNSLRAEDTAVYYCTRRVPIRLDYWGQGTLVTVSSASVAAPSVFIFPPSDEQLKSGTASVVCLLNNFYPREAKVQWKVDNALQSGNSQESVTEQDSKDSTYSLSSTLTLSKADYEKHKVYACEVTHQGLSSPVTKSFNRGEC
notes: also called P1AE9039; CD79b-CD28
One may read the Kd as the free concentration of one partner at which half of the binding sites on the other are occupied at equilibrium, for simple one-to-one binding. Broadly, the kon is a measure of how fast the partners come together. In the case of B3, in assay [2], the Kd amounted to 76 nM, the off-rate constant (koff) was found to be 0.0195 s⁻¹ and the kon came to 257000 M⁻¹ s⁻¹.

B4: CEA(P006.038-combo1)-CD28(SA_Variant 15) bispecific 1+1 IgG (bispecific antibody)
heavy 1: EIVLTQSPATLSLSPGERATLSCRASSSVTYIHWYQQKPGQAPRSWIYATSNLASGIPARFSGSGSGTDFTLTISSLEPEDFAVYYCQHWSSVPPTFGQGTKLEIKSSASTKGPSVFPLAPSSKSTSGGTAALGCLVKDYFPEPVTVSWNSGALTSGVHTFPAVLQSSGLYSLSSVVTVPSSSLGTQTYICNVNHKPSNTKVDKKVEPKSCDKTHTCPPCPAPEAAGGPSVFLFPPKPKDTLMISRTPEVTCVVVDVSHEDPEVKFNWYVDGVEVHNAKTKPREEQYNSTYRVVSVLTVLHQDWLNGKEYKCKVSNKALGAPIEKTISKAKGQPREPQVCTLPPSRDELTKNQVSLSCAVKGFYPSDIAVEWESNGQPENNYKTTPPVLDSDGSFFLVSKLTVDKSRWQQGNVFSCSVMHEALHNHYTQKSLSLSP
light 1: EVQLLESGGGLVQPGGSLRLSCAASGFYFTDYAMNWVRQAPGKGLEWLGVISNKANAYTTEYSASVKGRFTISRDKSKNTLYLQMNSLRAEDTATYYCTRDRGIRFGFDYWGQGTTVTVSSASVAAPSVFIFPPSDEQLKSGTASVVCLLNNFYPREAKVQWKVDNALQSGNSQESVTEQDSKDSTYSLSSTLTLSKADYEKHKVYACEVTHQGLSSPVTKSFNRGEC
heavy 2: not shown
light 2: not shown
For the molecule B4, in the assay with N(A2B2)A-avi-His [3], the koff was 7.99e-05 s⁻¹.

B5: Molecule 11R: CEA (P002.139)-CD28 (SA_Variant 15) 1+1 format (bispecific antibody)
heavy 1: EIVLTQSPATLSLSPGERATLSCHASSSVTYIHWYQQKPGQAPRSWIYATSNLASGIPARFSGSGSGTDFTLTISSLEPEDFAVYYCQHWSSKPPTFGQGTKLEIKSSASTKGPSVFPLAPSSKSTSGGTAALGCLVKDYFPEPVTVSWNSGALTSGVHTFPAVLQSSGLYSLSSVVTVPSSSLGTQTYICNVNHKPSNTKVDKKVEPKSCDKTHTCPPCPAPEAAGGPSVFLFPPKPKDTLMISRTPEVTCVVVDVSHEDPEVKFNWYVDGVEVHNAKTKPREEQYNSTYRVVSVLTVLHQDWLNGKEYKCKVSNKALGAPIEKTISKAKGQPREPQVCTLPPSRDELTKNQVSLSCAVKGFYPSDIAVEWESNGQPENNYKTTPPVLDSDGSFFLVSKLTVDKSRWQQGNVFSCSVMHEALHNHYTQKSLSLSP
light 1: EVQLLESGGGLVQPGGSLRLSCAASGFYFTDYAMNWVRQAPGKGLEWLGVISNKANAYTTEYSASVKGRFTISRDKSKNTLYLQMNSLRAEDTATYYCTRDRGLRFYFDYWGQGTTVTVSSASVAAPSVFIFPPSDEQLKSGTASVVCLLNNFYPREAKVQWKVDNALQSGNSQESVTEQDSKDSTYSLSSTLTLSKADYEKHKVYACEVTHQGLSSPVTKSFNRGEC
heavy 2: not shown
light 2: not shown
notes: also called P1AE8371
As usually defined, the EC50 is the concentration needed to bring the measured effect to its halfway point. Lower therefore signals greater potency. In the case of B5, a half-maximal effect in assay [4] (EC50) was put at 4.1 nM.

B6: Molecule M: CEA-CD28(SA) 1+1 format (bispecific antibody, human IgG1, kappa, L234A L235A)
light 1: not shown
heavy 1: not shown
heavy 2: QAVLTQPASLSASPGASASLTCTLRRGINVGAYSIYWYQQKPGSPPQYLLRYKSDSDKQQGSGVSSRFSASKDASANAGILLISGLQSEDEADYYCMIWHSGASAVFGGGTKLTVLSSASTKGPSVFPLAPSSKSTSGGTAALGCLVKDYFPEPVTVSWNSGALTSGVHTFPAVLQSSGLYSLSSVVTVPSSSLGTQTYICNVNHKPSNTKVDKKVEPKSCDKTHTCPPCPAPEAAGGPSVFLFPPKPKDTLMISRTPEVTCVVVDVSHEDPEVKFNWYVDGVEVHNAKTKPREEQYNSTYRVVSVLTVLHQDWLNGKEYKCKVSNKALGAPIEKTISKAKGQPREPQVCTLPPSRDELTKNQVSLSCAVKGFYPSDIAVEWESNGQPENNYKTTPPVLDSDGSFFLVSKLTVDKSRWQQGNVFSCSVMHEALHNHYTQKSLSLSP
light 2: EVQLVESGGGLVQPGRSLRLSCAASGFTVSSYWMHWVRQAPGKGLEWVGFIRNKANGGTTEYAASVKGRFTISRDDSKNTLYLQMNSLRAEDTAVYYCARDRGLRFYFDYWGQGTTVTVSSASVAAPSVFIFPPSDEQLKSGTASVVCLLNNFYPREAKVQWKVDNALQSGNSQESVTEQDSKDSTYSLSSTLTLSKADYEKHKVYACEVTHQGLSSPVTKSFNRGEC
notes: anti-CEA arm is Medi-565; also called P1AE3127
B6 displayed a Kd in assay [5] of 0.29 nM.

B7: Molecule 14B: HER3(lumretuzumab)-CD28 (SA_Variant 15) 1+1 format (bispecific antibody, human IgG1, kappa, L234A L235A)
heavy 1: not shown
light 1: not shown
heavy 2: DIVMTQSPDSLAVSLGERATINCKSSQSVLNSGNQKNYLTWYQQKPGQPPKLLIYWASTRESGVPDRFSGSGSGTDFTLTISSLQAEDVAVYYCQSDYSYPYTFGQGTKLEIKSSASTKGPSVFPLAPSSKSTSGGTAALGCLVKDYFPEPVTVSWNSGALTSGVHTFPAVLQSSGLYSLSSVVTVPSSSLGTQTYICNVNHKPSNTKVDKKVEPKSCDKTHTCPPCPAPEAAGGPSVFLFPPKPKDTLMISRTPEVTCVVVDVSHEDPEVKFNWYVDGVEVHNAKTKPREEQYNSTYRVVSVLTVLHQDWLNGKEYKCKVSNKALGAPIEKTISKAKGQPREPQVCTLPPSRDELTKNQVSLSCAVKGFYPSDIAVEWESNGQPENNYKTTPPVLDSDGSFFLVSKLTVDKSRWQQGNVFSCSVMHEALHNHYTQKSLSLSP
light 2: QVQLVQSGAEVKKPGASVKVSCKASGYTFRSSYISWVRQAPGQGLEWMGWIYAGTGSPSYNQKLQGRVTMTTDTSTSTAYMELRSLRSDDTAVYYCARHRDYYSNSLTYWGQGTLVTVSSASVAAPSVFIFPPSDEQLKSGTASVVCLLNNFYPREAKVQWKVDNALQSGNSQESVTEQDSKDSTYSLSSTLTLSKADYEKHKVYACEVTHQGLSSPVTKSFNRGEC
notes: also called P1AF0151; HER3-CD28
Consider B7, for which, in assay [6], the binding result is given as “binds”.

For the origin of these results see patent US20200199234A1 (published 2020).
